From paper PMC5700061 (Nature Communications, 2017)

Legend:
Settings in all cases: both partners purified
[1] = target: T1, Mouse s-sortilin A464E, native glycans (mouse); test: SPR; MX96 (IBIS); NGF, proNGF and proBDNF amine-coupled to a P-COOH SensEye sensor, s-sortilin flowed over as analyte; 25 mM MES pH 5.0, 150 mM NaCl, 0.005% Tween 20, 25 °C; equilibrium binding, 1:1 Langmuir model
T1 construct: Sortilin (Sort1), mouse, luminal segment, residues 1-722 with A464E; secreted with a cystatin signal peptide; Same limits as Dm1; also called A464E s-sortilin; source: HEK293-E, secreted, purified (Ni-NTA, SEC)

[2] = target: T2, furin-resistant mouse proNGF (mouse, UniProt P01139 122-241); test: SPR; equilibrium binding, IBIS MX96; NGF, proNGF and proBDNF amine-coupled, s-sortilin as analyte; 25 mM MES pH 5.0, 150 mM NaCl, 0.005% Tween 20, 25 °C; 1:1 Langmuir model
T2 chain: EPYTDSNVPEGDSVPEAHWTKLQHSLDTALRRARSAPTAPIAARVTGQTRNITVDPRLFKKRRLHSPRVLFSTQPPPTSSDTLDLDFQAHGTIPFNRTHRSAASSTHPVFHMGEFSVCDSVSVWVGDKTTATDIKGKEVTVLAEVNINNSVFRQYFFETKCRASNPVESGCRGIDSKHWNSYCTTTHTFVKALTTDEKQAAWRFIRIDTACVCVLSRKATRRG

[3] = target: T3, Nerve Growth Factor (NGF), mouse (mouse, UniProt P01139 122-241); test: as above
T3 construct: Mouse NGF purified from submaxillary glands; the mature neurotrophin as against proNGF; also called Mouse NGF; source: bought: Biorad (purified from submaxillary glands)

[4] = target: T2, furin-resistant mouse proNGF; test: SPR; equilibrium binding, IBIS MX96; NGF, proNGF and proBDNF amine-coupled, s-sortilin as analyte; 25 mM HEPES pH 7.4, 150 mM NaCl, 0.005% Tween 20, 25 °C; 1:1 Langmuir model
[5] = target: T3, Nerve Growth Factor (NGF), mouse; test: as above

| Binder | Kd [1] [nM] | fold reduction of binding at pH 5.0 against pH 7.4 [2] [fold] | fold reduction of binding at pH 5.0 against pH 7.4 [3] [fold] | Kd [4] [nM] | Kd [5] [nM] |
| --- | --- | --- | --- | --- | --- |
| Furin-resistant mouse proNGF (ligand) EPYTDSNVPEGDSVPEAHWTKLQHSLDTALAAARSAPTAPIAARVTGQTRNITVDPRLFKKAALHSPRVLFSTQPPPTSSDTLDLDFQAHGTIPFNRTHRSAASSTHPVFHMGEFSVCDSVSVWVGDKTTATDIKGKEVTVLAEVNINNSVFRQYFFETKCRASNPVESGCRGIDSKHWNSYCTTTHTFVKALTTDEKQAAWRFIRIDTACVCVLSRKATRRG | 2280 ± 260 |  |  |  |  |
| s-sortilin A464E (dimerization interface mutant of the mouse sortilin luminal segment) (domain or fragment, native glycans (HEK293-E)) RRGAPAEDQDCGRLPDFIAKLTNNTHQHVFDDLSGSVSLSWVGDSTGVILVLTTFQVPLVIVSFGQSKLYRSEDYGKNFKDITNLINNTFIRTEFGMAIGPENSGKVILTAEVSGGSRGGRVFRSSDFAKNFVQTDLPFHPLTQMMYSPQNSDYLLALSTENGLWVSKNFGEKWEEIHKAVCLAKWGPNNIIFFTTHVNGSCKADLGALELWRTSDLGKTFKTIGVKIYSFGLGGRFLFASVMADKDTTRRIHVSTDQGDTWSMAQLPSVGQEQFYSILAANEDMVFMHVDEPGDTGFGTIFTSDDRGIVYSKSLDRHLYTTTGGETDFTNVTSLRGVYITSTLSEDNSIQSMITFDQGGRWEHLRKPENSKCDATAKNKNECSLHIHASYSISQKLNVPMAPLSEPNAVGIVIAHGSVGDEISVMVPDVYISDDGGYSWAKMLEGPHYYTILDSGGIIVAIEHSNRPINVIKFSTDEGQCWQSYVFTQEPIYFTGLASEPGARSMNISIWGFTESFITRQWVSYTVDFKDILERNCEEDDYTTWLAHSTDPGDYKDGCILGYKEQFLRLRKSSVCQNGRDYVVAKQPSVCPCSLEDFLCDFGYFRPENASECVEQPELKGHELEFCLYGKEEHLTTNGYRKIPGDKCQGGMNPAREVKDLKKKCTSNFLNPTKQNSKSN |  | 2 | 2 | 810 | 320 |
